Source: publication PMC11996679, “Molecular basis of human nuclear and mitochondrial tRNA 3′ processing” (Nature Structural & Molecular Biology, 2024)
Changes are numbered by the printed parent chain.

T1: ELAC2 (cryo-EM);TRMT10C;SDR5C1 (Homo sapiens;Homo sapiens;Homo sapiens, UniProt Q9BQ52;Q7L0Y3;Q99714 32-826;40-403;1-261, ||)
T1 sequence 1: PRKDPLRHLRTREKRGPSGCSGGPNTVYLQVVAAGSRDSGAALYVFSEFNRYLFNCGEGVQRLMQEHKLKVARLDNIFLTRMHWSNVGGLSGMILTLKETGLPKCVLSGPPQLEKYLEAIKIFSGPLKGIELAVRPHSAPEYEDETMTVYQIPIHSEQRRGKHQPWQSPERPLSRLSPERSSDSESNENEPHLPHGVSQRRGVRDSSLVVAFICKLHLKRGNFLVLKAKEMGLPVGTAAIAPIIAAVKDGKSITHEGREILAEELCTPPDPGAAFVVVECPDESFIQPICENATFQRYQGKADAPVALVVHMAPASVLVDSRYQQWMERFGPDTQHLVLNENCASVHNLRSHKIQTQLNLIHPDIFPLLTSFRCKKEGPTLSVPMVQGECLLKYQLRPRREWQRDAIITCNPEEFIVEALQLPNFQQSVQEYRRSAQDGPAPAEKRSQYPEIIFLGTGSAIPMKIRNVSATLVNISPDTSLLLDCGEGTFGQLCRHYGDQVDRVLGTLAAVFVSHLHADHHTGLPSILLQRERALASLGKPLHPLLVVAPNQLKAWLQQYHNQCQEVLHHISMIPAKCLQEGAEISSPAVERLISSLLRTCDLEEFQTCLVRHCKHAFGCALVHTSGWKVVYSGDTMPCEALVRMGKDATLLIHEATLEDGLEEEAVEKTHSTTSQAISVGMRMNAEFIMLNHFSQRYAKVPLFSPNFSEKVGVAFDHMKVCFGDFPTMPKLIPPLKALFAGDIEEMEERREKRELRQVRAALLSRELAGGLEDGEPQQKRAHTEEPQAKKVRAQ
T1 sequence 2: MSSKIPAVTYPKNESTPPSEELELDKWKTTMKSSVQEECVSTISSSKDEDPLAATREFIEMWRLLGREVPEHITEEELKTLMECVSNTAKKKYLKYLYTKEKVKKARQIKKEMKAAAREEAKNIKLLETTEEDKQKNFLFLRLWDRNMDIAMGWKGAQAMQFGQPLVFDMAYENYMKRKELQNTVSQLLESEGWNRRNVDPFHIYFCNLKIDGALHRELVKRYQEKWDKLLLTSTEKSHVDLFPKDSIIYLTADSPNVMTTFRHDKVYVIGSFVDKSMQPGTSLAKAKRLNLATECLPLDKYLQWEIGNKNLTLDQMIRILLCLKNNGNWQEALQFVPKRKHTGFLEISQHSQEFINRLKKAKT
T1 sequence 3: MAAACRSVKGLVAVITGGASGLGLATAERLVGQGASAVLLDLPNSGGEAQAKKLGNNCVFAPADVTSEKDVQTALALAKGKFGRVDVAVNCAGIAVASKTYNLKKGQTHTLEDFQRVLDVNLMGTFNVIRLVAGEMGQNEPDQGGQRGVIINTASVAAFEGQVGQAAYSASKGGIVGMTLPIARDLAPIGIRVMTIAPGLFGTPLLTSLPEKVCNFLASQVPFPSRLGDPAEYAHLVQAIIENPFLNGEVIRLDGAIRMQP

T2: Δ1–31 ELAC2-Asp550Asn (human, UniProt Q9BQ52 32-826, Asp550Asn)
T2 construct: Cloned in the 438-B vector (Addgene plasmid 55219) with an N-terminal 6xHis tag and a TEV site; the tag was removed with TEV protease; also called ELAC2^mut; ELAC2(D550N); source: Hi-Five insect cells (baculovirus), purified (HisTrap, TEV cleavage, heparin, Superdex 200); not shown: 6xHis, N-terminal, cleaved
T2 sequence (looked up): T1 sequence 1 with D519N

B1: SDR5C1 (enzyme, human)
chain: T1 sequence 3
notes: also called MRPP2; HSD17B10
B2: 5-tRNAGln-24 Trailer(Tyr) (structured_RNA)
RNA: GGUGAUAGGAUGGGGUGUGAUAGGUGGCACGGAGAAUUUUGGAUUCUCAGGGAUGGGUUCGAUUCUCAUAGUCCUAGGCUCCGAGGUGAUUUUCAAGCUCG
B3: Δ1–91 TRMT10C (enzyme, human, UniProt Q7L0Y3 92-403, looked up)
chain: AATREFIEMWRLLGREVPEHITEEELKTLMECVSNTAKKKYLKYLYTKEKVKKARQIKKEMKAAAREEAKNIKLLETTEEDKQKNFLFLRLWDRNMDIAMGWKGAQAMQFGQPLVFDMAYENYMKRKELQNTVSQLLESEGWNRRNVDPFHIYFCNLKIDGALHRELVKRYQEKWDKLLLTSTEKSHVDLFPKDSIIYLTADSPNVMTTFRHDKVYVIGSFVDKSMQPGTSLAKAKRLNLATECLPLDKYLQWEIGNKNLTLDQMIRILLCLKNNGNWQEALQFVPKRKHTGFLEISQHSQEFINRLKKAKT
notes: TRMT10C (MRPP1), human, Δ1–91, used for the structural studies; also called MRPP1

Columns and labels:
[1] = molecular target: B3; assay: cryo-EM structure; mt-RNase Z^Gln: 5–tRNA^Gln–24 first 5′ processed with Δ1–91 TRMT10C–SDR5C1 and Δ1–45 PRORP, then Δ1–31 ELAC2-Asp550Asn added, on ice 60 min; GraFix 10–30% sucrose gradient with 0–0.015% glutaraldehyde, 25 mM Na–HEPES pH 7.5, 20 mM NaCl, 20 μM ZnCl2; pre-mt-tRNA^Gln is part of the complex; details: both partners purified
[2] = molecular target: T1, ELAC2 (cryo-EM);TRMT10C;SDR5C1; assay: cryo-EM structure; mt-RNase Z Gln complex (EMD-19455); FA: 20 mM Tris-HCl pH 8, 80 mM NaCl, 40 mM KCl, 3 mM MgCl2, 5% glycerol, 2 mM DTT; 20 nM RNA; 20 min at 20 C, read at room temperature; details: protein: recombinant;recombinant;recombinant; tags: N-terminal 6xHis-TEV (cleaved);;; copies: 1;1;4; tRNA cloverleaf with canonical elbow
[3] = molecular target: T2, Δ1–31 ELAC2-Asp550Asn; assay: cryo-EM structure; mt-RNase Z^Gln: 5–tRNA^Gln–24 first 5′ processed with Δ1–91 TRMT10C–SDR5C1 and Δ1–45 PRORP, then Δ1–31 ELAC2-Asp550Asn added, on ice 60 min; GraFix 10–30% sucrose gradient with 0–0.015% glutaraldehyde, 25 mM Na–HEPES pH 7.5, 20 mM NaCl, 20 μM ZnCl2; pre-mt-tRNA^Gln is part of the complex; details: both partners purified

Binder: B1
binding result [1]: binds

Binder: B2
binding result [2]: binds

Binder: B3
binding result [3]: binds
